According to patent publication US20140087995A1 (published 2014):
Numbered stars: 1 amine (or outer) side, 2 acyl side, 3 side chain; on linkers, the order of the positions; unused ones are H or OH. Bridge positions count the residues as written; N and C are the ends. Side chains are listed from the residue outwards. Ends that are not written are not given here. * marks the point of attachment. C20 diacid = O=C(O)CCCCCCCCCCCCCCCCCCC(=O)*; γGlu = O=C(O)[C@H](CCC(=O)[*:2])N[*:1]

T1: rat amylin receptor (rat calcitonin receptor + rat RAMP 3) (rat, UniProt P32214 25-516; Q9JJ73 23-147)
T1 construct: whole, on cells; Used as membranes prepared from BHK tk'ts 13 cells transiently transfected with rat calcitonin receptor and rat RAMP 3 (Assay VI); also called rAmylin-R; rat amylin 3(a) receptor
T1 sequence (looked up) 1: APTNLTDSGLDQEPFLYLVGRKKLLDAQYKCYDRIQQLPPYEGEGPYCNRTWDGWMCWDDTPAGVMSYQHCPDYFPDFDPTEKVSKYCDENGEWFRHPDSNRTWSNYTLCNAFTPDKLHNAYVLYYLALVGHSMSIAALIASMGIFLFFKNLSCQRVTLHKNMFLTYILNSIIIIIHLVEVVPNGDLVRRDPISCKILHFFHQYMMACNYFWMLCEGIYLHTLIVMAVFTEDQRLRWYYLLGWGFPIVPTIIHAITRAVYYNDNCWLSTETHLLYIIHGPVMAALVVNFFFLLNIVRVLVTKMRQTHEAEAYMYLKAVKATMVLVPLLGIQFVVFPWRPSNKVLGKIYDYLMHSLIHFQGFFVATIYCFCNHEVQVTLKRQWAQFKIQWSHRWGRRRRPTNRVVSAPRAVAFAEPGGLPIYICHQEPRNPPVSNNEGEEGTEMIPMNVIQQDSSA
T1 sequence (looked up) 2: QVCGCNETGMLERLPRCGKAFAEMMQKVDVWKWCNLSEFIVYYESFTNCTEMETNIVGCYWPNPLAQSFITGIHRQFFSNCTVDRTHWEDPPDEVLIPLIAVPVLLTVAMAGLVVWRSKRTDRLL

T2: rat calcitonin receptor (rat, UniProt P32214 25-516)
T2 construct: whole, on cells; Used as membranes prepared from BHK tk'ts 13 cells transiently transfected with the rat calcitonin receptor (Assay VIII); also called rCTR; rat calcitonin (a) receptor
T2 sequence (looked up): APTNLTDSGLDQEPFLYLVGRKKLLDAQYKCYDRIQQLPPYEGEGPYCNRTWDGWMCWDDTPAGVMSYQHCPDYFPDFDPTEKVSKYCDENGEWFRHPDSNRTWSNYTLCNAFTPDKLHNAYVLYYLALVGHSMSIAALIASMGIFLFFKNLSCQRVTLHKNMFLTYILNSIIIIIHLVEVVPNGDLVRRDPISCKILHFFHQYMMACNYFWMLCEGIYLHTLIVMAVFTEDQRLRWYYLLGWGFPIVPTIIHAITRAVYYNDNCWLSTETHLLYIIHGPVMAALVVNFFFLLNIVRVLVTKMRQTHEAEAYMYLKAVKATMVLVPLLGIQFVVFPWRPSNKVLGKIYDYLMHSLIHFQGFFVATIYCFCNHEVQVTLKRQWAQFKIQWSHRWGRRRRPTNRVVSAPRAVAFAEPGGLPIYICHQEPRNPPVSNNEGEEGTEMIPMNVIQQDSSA

T3: human calcitonin receptor (human, UniProt P30988 25-474)
T3 construct: whole, on cells; Used as membranes prepared from a BHK tk'ts 13 cell line stably transfected with the human calcitonin receptor (Assay VII); also called hCTR; hCT
T3 sequence (looked up): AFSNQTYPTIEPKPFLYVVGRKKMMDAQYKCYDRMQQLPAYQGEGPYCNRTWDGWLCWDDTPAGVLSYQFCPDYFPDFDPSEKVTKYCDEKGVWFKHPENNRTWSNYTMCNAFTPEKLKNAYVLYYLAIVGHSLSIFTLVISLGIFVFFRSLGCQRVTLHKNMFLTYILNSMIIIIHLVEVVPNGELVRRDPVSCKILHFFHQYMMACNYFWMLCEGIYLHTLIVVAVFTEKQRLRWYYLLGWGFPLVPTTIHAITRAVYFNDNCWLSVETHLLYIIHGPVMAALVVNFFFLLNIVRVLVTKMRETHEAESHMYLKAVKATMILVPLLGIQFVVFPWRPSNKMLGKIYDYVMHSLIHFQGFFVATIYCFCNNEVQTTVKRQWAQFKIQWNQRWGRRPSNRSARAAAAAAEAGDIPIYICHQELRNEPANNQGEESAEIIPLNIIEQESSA


Legend:
[1] = biological target: T1, rat amylin receptor (rat calcitonin …); experiment: SPA competition with 125I-rat amylin, membranes of BHK cells with rat CTR + rat RAMP3 (Assay VI)
[2] = biological target: T2, rat calcitonin receptor; experiment: IC50 on rat CTR divided by IC50 on rat amylin receptor (Assays VIII/VI)
[3] = biological target: T3, human calcitonin receptor; experiment: IC50 on human CTR divided by IC50 on human amylin receptor (Assays VII/V)
Summary of the method: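 IC₅₀ values were derived by one-site competition analysis of SPA counts. Cell membranes (35 ng/μL) with SPA beads were incubated with test compounds for 120 min at 25° C in Hepes buffer, pH 7.4, containing CaCl2, MgCl₂, OA and Tween20.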

[4] = biological target: T2, rat calcitonin receptor; experiment: SPA competition with 125I-calcitonin, membranes of BHK cells with rat CTR (Assay VIII)

Row | Binder | IC50 [1] [nM] | Ratio rCT/rAmylin binding [2] | Ratio hCT/hAmylin binding [3] | IC50 [4] [nM]
1 | K([γGlu-C20 diacid])CNTATCATQRLARFLRHSSPNFGAIPSSTNVGPNTY-NH2 (disulfide 2-7; N-terminus assumed; SMILES CC[C@H](C)[C@H](NC(=O)[C@H](C)NC(=O)CNC(=O)[C@H](Cc1ccccc1)NC(=O)[C@H](CC(N)=O)NC(=O)[C@@H]1CCCN1C(=O)[C@H](CO)NC(=O)[C@H](CO)NC(=O)[C@H](Cc1c[nH]cn1)NC(=O)[C@H](CCCNC(=N)N)NC(=O)[C@H](CC(C)C)NC(=O)[C@H](Cc1ccccc1)NC(=O)[C@H](CCCNC(=N)N)NC(=O)[C@H](C)NC(=O)[C@H](CC(C)C)NC(=O)[C@H](CCCNC(=N)N)NC(=O)[C@H](CCC(N)=O)NC(=O)[C@@H](NC(=O)[C@H](C)NC(=O)[C@@H]1CSSC[C@H](NC(=O)[C@@H](N)CCCCNC(=O)CC[C@H](NC(=O)CCCCCCCCCCCCCCCCCCC(=O)O)C(=O)O)C(=O)N[C@@H](CC(N)=O)C(=O)N[C@@H]([C@@H](C)O)C(=O)N[C@@H](C)C(=O)N[C@@H]([C@@H](C)O)C(=O)N1)[C@@H](C)O)C(=O)N1CCC[C@H]1C(=O)N[C@@H](CO)C(=O)N[C@@H](CO)C(=O)N[C@H](C(=O)N[C@@H](CC(N)=O)C(=O)N[C@H](C(=O)NCC(=O)N1CCC[C@H]1C(=O)N[C@@H](CC(N)=O)C(=O)N[C@H](C(=O)N[C@@H](Cc1ccc(O)cc1)C(N)=O)[C@@H](C)O)C(C)C)[C@@H](C)O, Analogue of human amylin; also called compound 65) | 1.16 | 93.2 | 82.4 | 108
2 | K([γGlu-C20 diacid])CNTATCATQRLANFLRHSSPNFGAIPSSTNVGRNTY-NH2 (disulfide 2-7; N-terminus assumed; SMILES CC[C@H](C)[C@H](NC(=O)[C@H](C)NC(=O)CNC(=O)[C@H](Cc1ccccc1)NC(=O)[C@H](CC(N)=O)NC(=O)[C@@H]1CCCN1C(=O)[C@H](CO)NC(=O)[C@H](CO)NC(=O)[C@H](Cc1c[nH]cn1)NC(=O)[C@H](CCCNC(=N)N)NC(=O)[C@H](CC(C)C)NC(=O)[C@H](Cc1ccccc1)NC(=O)[C@H](CC(N)=O)NC(=O)[C@H](C)NC(=O)[C@H](CC(C)C)NC(=O)[C@H](CCCNC(=N)N)NC(=O)[C@H](CCC(N)=O)NC(=O)[C@@H](NC(=O)[C@H](C)NC(=O)[C@@H]1CSSC[C@H](NC(=O)[C@@H](N)CCCCNC(=O)CC[C@H](NC(=O)CCCCCCCCCCCCCCCCCCC(=O)O)C(=O)O)C(=O)N[C@@H](CC(N)=O)C(=O)N[C@@H]([C@@H](C)O)C(=O)N[C@@H](C)C(=O)N[C@@H]([C@@H](C)O)C(=O)N1)[C@@H](C)O)C(=O)N1CCC[C@H]1C(=O)N[C@@H](CO)C(=O)N[C@@H](CO)C(=O)N[C@H](C(=O)N[C@@H](CC(N)=O)C(=O)N[C@H](C(=O)NCC(=O)N[C@@H](CCCNC(=N)N)C(=O)N[C@@H](CC(N)=O)C(=O)N[C@H](C(=O)N[C@@H](Cc1ccc(O)cc1)C(N)=O)[C@@H](C)O)C(C)C)[C@@H](C)O, Analogue of human amylin; also called compound 79) [N^ε1-[(4S)-4-carboxy-4-(19-carboxynonadecanoylamino)butanoyl]-[Arg17,Pro21,Pro27,Arg34]-h-amylin] | 1.65 | 21.5 | 46.1 | 35.5
3 | K([γGlu-C20 diacid])CNTATCATQRLAEFLRHSSPNFGAIPSSTNVGSRTY-NH2 (disulfide 2-7; N-terminus assumed; SMILES CC[C@H](C)[C@H](NC(=O)[C@H](C)NC(=O)CNC(=O)[C@H](Cc1ccccc1)NC(=O)[C@H](CC(N)=O)NC(=O)[C@@H]1CCCN1C(=O)[C@H](CO)NC(=O)[C@H](CO)NC(=O)[C@H](Cc1c[nH]cn1)NC(=O)[C@H](CCCNC(=N)N)NC(=O)[C@H](CC(C)C)NC(=O)[C@H](Cc1ccccc1)NC(=O)[C@H](CCC(=O)O)NC(=O)[C@H](C)NC(=O)[C@H](CC(C)C)NC(=O)[C@H](CCCNC(=N)N)NC(=O)[C@H](CCC(N)=O)NC(=O)[C@@H](NC(=O)[C@H](C)NC(=O)[C@@H]1CSSC[C@H](NC(=O)[C@@H](N)CCCCNC(=O)CC[C@H](NC(=O)CCCCCCCCCCCCCCCCCCC(=O)O)C(=O)O)C(=O)N[C@@H](CC(N)=O)C(=O)N[C@@H]([C@@H](C)O)C(=O)N[C@@H](C)C(=O)N[C@@H]([C@@H](C)O)C(=O)N1)[C@@H](C)O)C(=O)N1CCC[C@H]1C(=O)N[C@@H](CO)C(=O)N[C@@H](CO)C(=O)N[C@H](C(=O)N[C@@H](CC(N)=O)C(=O)N[C@H](C(=O)NCC(=O)N[C@@H](CO)C(=O)N[C@@H](CCCNC(=N)N)C(=O)N[C@H](C(=O)N[C@@H](Cc1ccc(O)cc1)C(N)=O)[C@@H](C)O)C(C)C)[C@@H](C)O, Analogue of human amylin; also called compound 51) | 0.523 | 119 | 37.5 | 62
4 | K([γGlu-C20 diacid])CNTATCATQRLANFLRHSSPNFGAIPSSTNVGHNTY-NH2 (disulfide 2-7; N-terminus assumed; SMILES CC[C@H](C)[C@H](NC(=O)[C@H](C)NC(=O)CNC(=O)[C@H](Cc1ccccc1)NC(=O)[C@H](CC(N)=O)NC(=O)[C@@H]1CCCN1C(=O)[C@H](CO)NC(=O)[C@H](CO)NC(=O)[C@H](Cc1c[nH]cn1)NC(=O)[C@H](CCCNC(=N)N)NC(=O)[C@H](CC(C)C)NC(=O)[C@H](Cc1ccccc1)NC(=O)[C@H](CC(N)=O)NC(=O)[C@H](C)NC(=O)[C@H](CC(C)C)NC(=O)[C@H](CCCNC(=N)N)NC(=O)[C@H](CCC(N)=O)NC(=O)[C@@H](NC(=O)[C@H](C)NC(=O)[C@@H]1CSSC[C@H](NC(=O)[C@@H](N)CCCCNC(=O)CC[C@H](NC(=O)CCCCCCCCCCCCCCCCCCC(=O)O)C(=O)O)C(=O)N[C@@H](CC(N)=O)C(=O)N[C@@H]([C@@H](C)O)C(=O)N[C@@H](C)C(=O)N[C@@H]([C@@H](C)O)C(=O)N1)[C@@H](C)O)C(=O)N1CCC[C@H]1C(=O)N[C@@H](CO)C(=O)N[C@@H](CO)C(=O)N[C@H](C(=O)N[C@@H](CC(N)=O)C(=O)N[C@H](C(=O)NCC(=O)N[C@@H](Cc1c[nH]cn1)C(=O)N[C@@H](CC(N)=O)C(=O)N[C@H](C(=O)N[C@@H](Cc1ccc(O)cc1)C(N)=O)[C@@H](C)O)C(C)C)[C@@H](C)O, Analogue of human amylin; also called compound 77) [N^ε1-[(4S)-4-carboxy-4-(19-carboxynonadecanoylamino)butanoyl]-[Arg17,Pro21,Pro27,His34]-h-amylin] | 1.5 | 137 | 118 | 205
5 | K([γGlu-C20 diacid])CNTATCATQRLANFLRHSSPNFGAIPSSTNVGSHTY-NH2 (disulfide 2-7; N-terminus assumed; SMILES CC[C@H](C)[C@H](NC(=O)[C@H](C)NC(=O)CNC(=O)[C@H](Cc1ccccc1)NC(=O)[C@H](CC(N)=O)NC(=O)[C@@H]1CCCN1C(=O)[C@H](CO)NC(=O)[C@H](CO)NC(=O)[C@H](Cc1c[nH]cn1)NC(=O)[C@H](CCCNC(=N)N)NC(=O)[C@H](CC(C)C)NC(=O)[C@H](Cc1ccccc1)NC(=O)[C@H](CC(N)=O)NC(=O)[C@H](C)NC(=O)[C@H](CC(C)C)NC(=O)[C@H](CCCNC(=N)N)NC(=O)[C@H](CCC(N)=O)NC(=O)[C@@H](NC(=O)[C@H](C)NC(=O)[C@@H]1CSSC[C@H](NC(=O)[C@@H](N)CCCCNC(=O)CC[C@H](NC(=O)CCCCCCCCCCCCCCCCCCC(=O)O)C(=O)O)C(=O)N[C@@H](CC(N)=O)C(=O)N[C@@H]([C@@H](C)O)C(=O)N[C@@H](C)C(=O)N[C@@H]([C@@H](C)O)C(=O)N1)[C@@H](C)O)C(=O)N1CCC[C@H]1C(=O)N[C@@H](CO)C(=O)N[C@@H](CO)C(=O)N[C@H](C(=O)N[C@@H](CC(N)=O)C(=O)N[C@H](C(=O)NCC(=O)N[C@@H](CO)C(=O)N[C@@H](Cc1c[nH]cn1)C(=O)N[C@H](C(=O)N[C@@H](Cc1ccc(O)cc1)C(N)=O)[C@@H](C)O)C(C)C)[C@@H](C)O, Analogue of human amylin; also called compound 60) [N^ε1-[(4S)-4-carboxy-4-(19-carboxynonadecanoylamino)butanoyl]-[Arg17,Pro21,Pro27,His35]-h-amylin] | 0.215 | 122 | 45.2 | 26.3
